Assay results as given in patent US11892449B2, “Therapeutics and point of care lateral-flow test for virus and antibodies using tagged assembled proteins” (priority 2021, dated 2024).

B1: HIF1α-MAP-1 (protein)
chain: MRGSHHHHHHGSACELAATATATATATATAACGDLAPQMLRELQETNAALQDVRELLRQQVKEITFLKNTLLEIWKAAKEAAKEAAAKIEEQAKTFLDKFNGEELLRALDQVN
B2: H-MAP-2 (protein)
chain: MRGSPKKKRKVGGGGSHHHHHHHHGSACELAATATATATATATAACGDLAPQMLRELQETNAALQDVRELLRQQVKEITFLKNTLLEIWKAAKEAAKEAAAKIEEQAKTFLDKFNGEELLRALDQVN

Legend:
[1] = biological target: p300; experiment: ELISA binding to p300, total binding kinetics; settings: for Kd: ELISA, average of three independent trials
Text: FIG. 21. H-MAP1 (H-MAP) and H-MAP2 ELISA fitted with total binding kinetics using Prism 7 (GraphPad) with calculated binding affinities as an average of three independent trials.

[2] = test system: HIF1α; experiment: Hypoxia-inducible luciferase reporter in MDA-MB-231 cells; type: cell-based; settings: MDA-MB-231-Luciferase cells, hypoxia induced with 100 μM CoCl2, increasing concentrations
Text: FIG. 22. […] Results are normalized to maximum luciferase intensity of two independent trials.
We will further characterize the HIF1α-MAP1 and iterative HIF1α-MAP designs as described in the following section. For example, to increase the likelihood of translocation to the nucleus, HIF1α-MAP-2 (H-MAP-2) was designed by addition of nuclear localization sequence, PKKKRKV (SEQ ID NO:7), at the N-terminus. […] To test the ability of HIF1α-MAPs to modulate hypoxia-inducible signaling, HIF1α-MAP-2 was incubated with triple negative breast cancer cell line, MDA-MB-231, stably transfected a construct to express firefly luciferase under normoxic and hypoxic (induced with final concentration 100 μM CoCl2) conditions.

| Molecule | Kd [1] | fold improvement in comparison to native HIF1α ([1]; binding to p300) | expression of luciferase (hypoxia-inducible gene expression) [2] | expression of luciferase (hypoxia-inducible gene expression) ([2]; listed as HIF1α-MAP-2) |
| --- | --- | --- | --- | --- |
| native HIF1α [reference compound] | 0.38 nM | – | – | – |
| B1 | 0.00808 nM | 47 fold | – | – |
| B2 | 0.0382 nM | – | inhibitions of HIF1α | decreased expression of luciferase |
